According to publication PMC3115508:

B1: 38 bp DNA (dsDNA)
DNA 1: CGGTCAGTTCAAGCCCTTCTAAGTTTGTAGACACCAGC
DNA 2: GCTGGTGTCTACAAACTTAGAAGGGCTTGAACTGACCG
B2: 15 bp DNA (dsDNA)
DNA 1: CGGTCAGTTCAAGGC
DNA 2: GCCTTGAACTGACCG

Tests used:
HUαβ [1] = biological target: T1, HUαβ (Escherichia coli, UniProt P0ACF0;P0ACF4 1-90;1-90); assay: ITC
HUαβ [2] = biological target: T1, HUαβ; assay: ITC; remark: listed apart in the source

T1 sequence (P0ACF0 whole entry, chain 1 of 2): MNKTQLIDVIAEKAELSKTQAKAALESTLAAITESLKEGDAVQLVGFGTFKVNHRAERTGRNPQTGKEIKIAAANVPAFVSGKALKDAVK
T1 sequence (P0ACF4 whole entry, chain 2 of 2): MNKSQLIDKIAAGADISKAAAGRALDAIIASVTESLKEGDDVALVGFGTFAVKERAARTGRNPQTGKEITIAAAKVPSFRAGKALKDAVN

Row | Binder | binding result (HUαβ [1]) | binding signal (HUαβ [2]) [k10/k6 ratio]
1 | B1 | binds | 
2 | B2 |  | 2.8 ± 1
